From the supplement of paper PMC9170038

Test system: MS2 coat protein
Experiment: apparent KD of MS2 coat protein; designed switch direction (-1 OFF switch, 1 ON switch): -1; higher = weaker reporter binding
Summary of the method: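 Each step of the titration lasted 0.8–1.5 h at the lowest concentration and 10–20 min at the highest. The protein, SNAP-549-labelled MS2 coat protein, went from 0.7 or 1.5 nM doubling to 3 µM over RNA switches transcribed on Illumina chips by stalled E. coli RNA polymerase. Normalised cluster fluorescence was curve-fitted, and the per-design median over clusters is given as apparent KD.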

[1] = input ligand: microRNA oligo, concentration not stated
[2] = Eterna round: R95, input ligand: FMN 200 uM
[3] = Eterna round: R95, input ligand: microRNA oligo, concentration not stated
[4] = Eterna round: R95, input ligand: none

| Sequence | apparent KD of MS2 coat protein (input ligand: FMN 200 uM) | apparent KD of MS2 coat protein (input ligand: none) | apparent KD of MS2 coat protein [1] | apparent KD of MS2 coat protein [2] | apparent KD of MS2 coat protein [3] | apparent KD of MS2 coat protein [4] |
| --- | --- | --- | --- | --- | --- | --- |
| UAUGGUUAAGUCAGGAUAUGCACGAAGAGAUCAAUGCAGAAGGGACAUGAGGAUCACCCAUGUAAAGUCGUGUU [Ex4 #74] (Eterna round: R97, puzzle: Brourd's mod of Exclusion 4) | 55.1 nM | 27.7 nM |  |  |  |  |
| UAUGGUUAAGUCAGGAUAUGCUCAUAGAAGUCUAUGCAGAAGGGACAUGAGGAUCACCCAUGUAUGGUCGUGUU [Ex4 #65] (Eterna round: R97, puzzle: Brourd's mod of Exclusion 4) | 142 nM | 70.9 nM |  |  |  |  |
| UAUGGUUAAGUCAGGAUAUGCUCAUAGAAGUCUGUGCAGAAGGGACAUGAGGAUCACCCAUGUAUGGUAGUGUU [Ex4 #61] (Eterna round: R97, puzzle: Brourd's mod of Exclusion 4) | 293 nM | 460 nM |  |  |  |  |
| UAUGUCUCAGGAGGAUAUCUCCCGGUUGCCGUUAGAGAAGGCUUGAAACAUGAGGAUCACCCAUGUAAAUGGCCCGUCCUCCAA [Atsodibian] (Eterna round: R96, puzzle: Exclusion NG 1) | 15.4 nM | 14.7 nM | 9.77 nM |  |  |  |
| UAUGUUUUAGGAUAUUGUACUGCUGACAUGAGGAUCACCCAUGUAUGCUAACUCGGCCGUCGAGAAGGAGAAUAUG [BotMod 30 - Jieux - Exclusion 5] (Eterna round: R97, puzzle: Exclusion 5) | 43.6 nM | 63.8 nM |  |  |  |  |
| UAUUAAACAAGCAGAUCCCACAUGAGGAUCACCCAUGUGCUCGUCUUAUAAGGUACUGUGACGAAAGUCACGGUACC [Sensor 3, v1 - 91 v11] (Eterna round: R97, puzzle: Sensor, turn-off variant 1) | 56.7 nM | 62.1 nM |  |  |  |  |
| UAUUAACAAGCAAGAUCCCACAUGAGGAUCACCCAUGUGCUCGUCUUGUAAGGUACUGUGACGAAAGUCACGGUACC [Sensor 3, v1 - 84] (puzzle: Sensor v3, turn-off variant 1) |  |  |  | 13.9 nM | 41 nM | 13.4 nM |
| UAUUAACAAGCGAGAUCCCACAUGAGGAUCACCCAUGUGCUCGUCUUAUAAGGUACUGUGACGAUAGUCACGGUACC [Mat - Sensor, turn-off var - Eli Mod - D3] (Eterna round: R97, puzzle: Sensor, turn-off variant 1) | 14.5 nM | 13.8 nM |  |  |  |  |
| UAUUAAGCAAGCAGAUCCCACAUGAGGAUCACCCAUGUGCUCGUCUUAUAAGGUACUGUGACGAGAGUCACGGUACC [Mat - Sensor, turn-off var - Eli Mod - D69] (Eterna round: R97, puzzle: Sensor, turn-off variant 1) | 165 nM | 129 nM |  |  |  |  |
| UAUUAGCAAGCAACUGGGUACAUGAGGAUCACCCAUGUGCUCGUCUUAUAAGGUACUGUGACGAAAUUCACGGUACC [mod--Eli13] (Eterna round: R97, puzzle: Sensor, turn-off variant 1) | 21.1 nM | 18.6 nM |  |  |  |  |
| UAUUAGCAAGCAAGAUCCCACAUGAGGAUCACCCAUGUGCUCGUCUUAUAAGGUACUGUGACGAUAGUCACGGUACC [Mat - Sensor, turn-off var - Eli Mod - D46] (Eterna round: R97, puzzle: Sensor, turn-off variant 1) | 60.5 nM | 54.1 nM |  |  |  |  |
| UAUUAGCAAGCGAGAUCCCACAUGAGGAUCACCCAUGUGCUCGUCUUAAGCCCAGAAUUACUGGGCGCUCGUCUUAU [Winner reversed engineered 20] (Eterna round: R97, puzzle: Sensor, turn-off variant 1) | 13.1 nM | 12.7 nM |  |  |  |  |
| UAUUAGCAAGCGAGAUCCCACAUGAGGAUCACCCAUGUGCUCGUCUUAUAAGGUACUGUGACGAAAGUCACGGUACC [Sensor 3, v1 - 91] (Eterna round: R96, puzzle: Sensor v3, turn-off variant 1) | 11.5 nM | 15.5 nM | 298 nM |  |  |  |
| UAUUAGCAAGCGAGAUCCCACAUGAGGAUCACCCAUGUGCUCGUCUUAUAAGGUACUGUGACGAAAGUCACGGUACC [Sensor 3, v1 - 91] (puzzle: Sensor v3, turn-off variant 1) |  |  |  | 12.6 nM | 441 nM | 10.8 nM |
| UAUUAGCAAGCGAGAUCCCACAUGAGGAUCACCCAUGUGCUCGUCUUAUAAGGUACUGUGACGAAAGUCACGGUACC [Sensor 3, v1 - 95 v5] (Eterna round: R97, puzzle: Sensor, turn-off variant 1) | 16.8 nM | 15.3 nM |  |  |  |  |
| UAUUAGCAAGCUAGAUCCCACAUGAGGAUCACCCAUGUGCUCGUCUUAUAAGGUACUGUGACGAAAGUCACGGUACC [Sensor 3, v1 - 96] (puzzle: Sensor v3, turn-off variant 1) |  |  |  | 56.8 nM | 798 nM | 57.5 nM |
| UAUUAGCAAGUAAGAUCCCACAUGAGGAUCACCCAUGUGCUCGUCAUAUCACGUACUGUGAGGAAACUCACGGUACG [Sensor-V1 #85] (Eterna round: R97, puzzle: Sensor, turn-off variant 1) | 114 nM | 128 nM |  |  |  |  |
| UAUUCGCAAGCGAGAUCCCACAUGAGGAUCACCCAUGUGCUCGUCUUAUAAGGUACUGUGACGAUAGUCACGGUACC [Mat - Sensor, turn-off var - Eli Mod - D81] (Eterna round: R97, puzzle: Sensor, turn-off variant 1) | 16.7 nM | 16.3 nM |  |  |  |  |
| UAUUCGCAAGUGAGAUCCCACAUGAGGAUCACCCAUGUGCUCGUCUUAUAAGGUACUGUGACGAUAGUCACGGUACC [Mat - Sensor, turn-off var - Eli Mod - D80] (Eterna round: R97, puzzle: Sensor, turn-off variant 1) | 30.9 nM | 32.5 nM |  |  |  |  |
| UAUUGGAUAGGAUAUACAUGAGGAUCACCCAUGUGGACGGCUAAGCCUACCGCGCAGAGUAGAAGGGUCGGGUG [Eternabot (L1) Solution 66] (Eterna round: R97, puzzle: Exclusion 3) | 161 nM | 155 nM |  |  |  |  |
| UAUUUACAUGAGGAUCACCCAUGUCAGGAUAUGUUUCUAUCGUCGAAAGACGAUAUUUGCAGAAGGGACAAUAU [LRO-Excl01-26 mod derived from EliFisker 4.24] (Eterna round: R97, puzzle: Exclusion 1) | 64.4 nM | 27.9 nM |  |  |  |  |
| UAUUUUAAAGUAAGGAUAUCGGUCCGAAAGGACUACGAGAAGGUACAUGAGGAUCACCCAUGUGAAAUAAGAAU [Mod of Zala 23 - Jieux - Brourd's Mod of Exclusion 4] (Eterna round: R97, puzzle: Brourd's mod of Exclusion 4) | 20.8 nM | 15 nM |  |  |  |  |
| UCAAAAUAGUCAGGAUAUGCAGAUUCAGCGUCCGCAGAAGGGACAGUGGGCUGGUCCGACACAUGAGGAUCACCCAUGUAAAAG [Teerreanor] (Eterna round: R96, puzzle: Exclusion NG 1) | 260 nM | 109 nM | 140 nM |  |  |  |
| UCAAGCUUUAAGCGUGUGAACAUGAGGAUCACCCAUGUAUUUUAGGUAAUAAGUUCUUUUAUGUAUUCUCGUCUUAU [JR_SWV3TOV1_Sub094] (puzzle: Sensor v3, turn-off variant 1) |  |  |  | 114 nM | 39.1 nM | 136 nM |
| UCAAGUAUGUAGGAUAUGAUGUGAUUUUACAUAUCAGAAGGACGUACAUGAGGAUCACCCAUGUAACUUGCAUG [Exclusion 6 - B - 12:a] (puzzle: Exclusion 6) |  |  |  |  | 86.9 nM |  |
| UCACGGCUCGGAGGAUAUGACACAUGAGGAUCACCCAUGUGUGUAAGCCAAUAAACCUACAAAUGUCAGAAGGCCGCGCCUCAU [Eternabot solution 9] (Eterna round: R96, puzzle: Exclusion NG 2) |  |  | 10.8 nM |  |  |  |
| UCACGGGACUGAGGAUAUACAUGAAUUAUUUUUGUAGAAGGCAGAAUGUUAGUUUAUUCACUAUACAUGAGGAUCACCCAUGUU [JR_ExcNG1_Sub021] (Eterna round: R96, puzzle: Exclusion NG 1) | 21.5 nM | 32.9 nM | 26.7 nM |  |  |  |
| UCACGGGAUUGAGGAUAUAUAUUAAUUUUUUUUAUAGAAGGCAAAUUGUUAGAUUAUUCACUAUACAUGAGGAUCACCCAUGUU [JR_ExcBG1_Sub077] (Eterna round: R96, puzzle: Exclusion NG 1) |  |  | 19.9 nM |  |  |  |
| UCACGGGAUUGAGGAUAUAUAUUUAUUAUUUUAAUAGAAGGCAAAGAGUUAGUUUUUUCACUAUACAUGAGGAUCACCCAUGUU [JR_ExcNG1_Sub086] (Eterna round: R96, puzzle: Exclusion NG 1) |  |  | 23.2 nM |  |  |  |
